Assay results published in patent publication US20220204643A1 (published 2022).

Assays:
DEAD-box helicase 18 = biological target: T1, DEAD-box helicase 18 (human, UniProt Q9NVP1 1-670); assay: protein array
T1 construct: on protein array; also called DDX18
T1 sequence: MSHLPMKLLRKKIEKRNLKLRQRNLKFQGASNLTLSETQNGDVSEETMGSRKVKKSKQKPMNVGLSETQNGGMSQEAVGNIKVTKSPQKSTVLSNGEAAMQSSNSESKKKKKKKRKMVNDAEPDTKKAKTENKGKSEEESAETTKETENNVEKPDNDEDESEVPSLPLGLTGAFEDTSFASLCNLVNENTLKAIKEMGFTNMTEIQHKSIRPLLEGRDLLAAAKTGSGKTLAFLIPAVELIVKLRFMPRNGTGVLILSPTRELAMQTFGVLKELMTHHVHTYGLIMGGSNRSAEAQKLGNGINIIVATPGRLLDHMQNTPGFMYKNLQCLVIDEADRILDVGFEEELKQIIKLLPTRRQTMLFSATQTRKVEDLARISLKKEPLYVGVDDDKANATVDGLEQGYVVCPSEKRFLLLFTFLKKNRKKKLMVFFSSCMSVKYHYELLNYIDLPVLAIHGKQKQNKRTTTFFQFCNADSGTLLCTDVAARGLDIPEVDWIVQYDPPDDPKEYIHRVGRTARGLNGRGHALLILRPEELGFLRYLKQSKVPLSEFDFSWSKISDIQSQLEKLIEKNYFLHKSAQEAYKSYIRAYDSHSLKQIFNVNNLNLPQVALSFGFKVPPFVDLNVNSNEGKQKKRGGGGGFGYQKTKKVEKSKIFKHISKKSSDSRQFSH

[1] = biological target: T2, syntaxin 1A, transcript variant 1 (human, UniProt Q16623 1-288); assay: protein array
T2 construct: on protein array; also called STX1A
T2 sequence (Q16623 whole entry, change not shown): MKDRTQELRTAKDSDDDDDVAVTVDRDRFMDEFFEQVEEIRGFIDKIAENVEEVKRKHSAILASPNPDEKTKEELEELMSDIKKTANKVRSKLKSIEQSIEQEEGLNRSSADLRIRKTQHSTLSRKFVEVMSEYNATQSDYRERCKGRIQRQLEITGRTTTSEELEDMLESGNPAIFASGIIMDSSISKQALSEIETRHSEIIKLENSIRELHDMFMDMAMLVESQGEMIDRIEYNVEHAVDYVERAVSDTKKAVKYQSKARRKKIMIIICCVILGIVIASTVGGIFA

[2] = biological target: T3, geminin DNA replication inhibitor, transcript variant 1 (human, UniProt O75496 1-209); assay: protein array
T3 construct: on protein array; also called GMNN
T3 sequence: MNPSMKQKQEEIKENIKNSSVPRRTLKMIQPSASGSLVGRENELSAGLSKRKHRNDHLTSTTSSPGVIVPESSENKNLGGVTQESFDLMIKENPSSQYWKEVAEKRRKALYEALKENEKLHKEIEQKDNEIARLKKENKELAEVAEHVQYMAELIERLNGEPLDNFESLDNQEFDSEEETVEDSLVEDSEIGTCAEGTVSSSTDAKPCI

[3] = biological target: T4, CDP-diacylglycerol synthase 1 (human, UniProt Q92903 1-461)
T4 construct: HuProt array protein, full-length recombinant from yeast; also called CDS1
T4 sequence: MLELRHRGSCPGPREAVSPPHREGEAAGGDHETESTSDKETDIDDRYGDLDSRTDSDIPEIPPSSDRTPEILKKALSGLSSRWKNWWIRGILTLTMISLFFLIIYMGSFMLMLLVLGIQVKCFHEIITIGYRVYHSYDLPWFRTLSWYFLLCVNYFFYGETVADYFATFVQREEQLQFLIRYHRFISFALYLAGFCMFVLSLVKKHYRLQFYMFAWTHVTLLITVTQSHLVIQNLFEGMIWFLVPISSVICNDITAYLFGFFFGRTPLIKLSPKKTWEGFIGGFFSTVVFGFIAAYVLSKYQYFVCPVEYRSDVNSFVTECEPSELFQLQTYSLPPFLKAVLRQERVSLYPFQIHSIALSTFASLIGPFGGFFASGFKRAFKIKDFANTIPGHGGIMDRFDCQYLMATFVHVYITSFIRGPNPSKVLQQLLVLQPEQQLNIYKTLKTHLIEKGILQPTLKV

[4] = biological target: T5, dynein axonemal assembly factor 3, transcript variant 3 (human, UniProt Q8N9W5 1-541)
T5 construct: HuProt array protein, full-length recombinant from yeast; also called DNAAF3
T5 sequence: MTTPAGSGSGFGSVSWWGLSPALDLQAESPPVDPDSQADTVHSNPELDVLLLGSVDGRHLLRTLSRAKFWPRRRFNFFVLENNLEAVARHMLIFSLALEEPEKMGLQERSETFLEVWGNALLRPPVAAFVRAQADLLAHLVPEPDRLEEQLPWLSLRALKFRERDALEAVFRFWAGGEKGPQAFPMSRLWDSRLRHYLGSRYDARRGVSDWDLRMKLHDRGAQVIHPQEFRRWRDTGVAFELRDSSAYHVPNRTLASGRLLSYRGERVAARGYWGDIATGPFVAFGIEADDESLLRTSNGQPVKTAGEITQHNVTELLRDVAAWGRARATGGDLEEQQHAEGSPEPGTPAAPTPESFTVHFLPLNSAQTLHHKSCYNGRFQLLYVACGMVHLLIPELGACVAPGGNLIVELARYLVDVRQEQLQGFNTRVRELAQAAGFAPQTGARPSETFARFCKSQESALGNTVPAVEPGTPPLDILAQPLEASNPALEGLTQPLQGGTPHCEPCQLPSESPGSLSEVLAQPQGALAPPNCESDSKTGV

[5] = biological target: T6, aarF domain containing kinase 5 (human, UniProt Q3MIX3 1-580)
T6 construct: HuProt array protein, full-length recombinant from yeast; also called ADCK5
T6 sequence (Q3MIX3 other isoform, or with tags, fused parts or gaps limits assumed): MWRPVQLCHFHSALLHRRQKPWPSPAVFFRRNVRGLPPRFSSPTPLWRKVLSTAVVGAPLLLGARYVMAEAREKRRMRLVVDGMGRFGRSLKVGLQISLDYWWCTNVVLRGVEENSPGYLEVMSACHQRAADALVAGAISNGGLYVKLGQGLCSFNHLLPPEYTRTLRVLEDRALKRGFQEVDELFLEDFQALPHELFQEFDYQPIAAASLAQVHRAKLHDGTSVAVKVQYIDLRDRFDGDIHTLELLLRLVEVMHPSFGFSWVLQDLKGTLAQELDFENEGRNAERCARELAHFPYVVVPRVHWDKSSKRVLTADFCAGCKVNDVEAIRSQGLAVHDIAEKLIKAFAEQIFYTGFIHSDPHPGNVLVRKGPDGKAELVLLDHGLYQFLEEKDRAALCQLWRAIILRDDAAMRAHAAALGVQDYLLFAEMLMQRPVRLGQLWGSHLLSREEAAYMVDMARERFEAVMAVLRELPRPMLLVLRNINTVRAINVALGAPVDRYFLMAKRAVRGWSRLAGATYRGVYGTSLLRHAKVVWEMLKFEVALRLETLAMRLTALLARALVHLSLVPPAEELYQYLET

[6] = biological target: aldo-keto reductase family 1 member B, transcript variant 1 (human, UniProt P15121 2-316)
[7] = biological target: T7, proliferating cell nuclear antigen, transcript variant 1 (human, UniProt P12004 1-261)
T7 construct: HuProt array protein, full-length recombinant from yeast; also called PCNA
T7 sequence (P12004 whole entry, change not shown): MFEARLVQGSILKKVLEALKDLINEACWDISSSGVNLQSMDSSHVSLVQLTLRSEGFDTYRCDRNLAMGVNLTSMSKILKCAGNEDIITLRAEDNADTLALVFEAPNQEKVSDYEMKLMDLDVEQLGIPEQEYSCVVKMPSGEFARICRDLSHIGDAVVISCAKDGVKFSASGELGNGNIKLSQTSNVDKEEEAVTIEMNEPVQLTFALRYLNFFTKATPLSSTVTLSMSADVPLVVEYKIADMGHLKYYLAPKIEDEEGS

[8] = biological target: T8, S100 calcium binding protein B (human, UniProt P04271 2-92)
T8 construct: HuProt array protein, full-length recombinant from yeast; also called S100B
T8 sequence: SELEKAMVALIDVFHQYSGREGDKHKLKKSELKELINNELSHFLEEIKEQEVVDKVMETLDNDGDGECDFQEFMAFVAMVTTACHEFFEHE

[9] = biological target: T9, checkpoint kinase 2, transcript variant 3 (human)
T9 construct: HuProt array protein, full-length recombinant from yeast; also called CHEK2
T9 chain: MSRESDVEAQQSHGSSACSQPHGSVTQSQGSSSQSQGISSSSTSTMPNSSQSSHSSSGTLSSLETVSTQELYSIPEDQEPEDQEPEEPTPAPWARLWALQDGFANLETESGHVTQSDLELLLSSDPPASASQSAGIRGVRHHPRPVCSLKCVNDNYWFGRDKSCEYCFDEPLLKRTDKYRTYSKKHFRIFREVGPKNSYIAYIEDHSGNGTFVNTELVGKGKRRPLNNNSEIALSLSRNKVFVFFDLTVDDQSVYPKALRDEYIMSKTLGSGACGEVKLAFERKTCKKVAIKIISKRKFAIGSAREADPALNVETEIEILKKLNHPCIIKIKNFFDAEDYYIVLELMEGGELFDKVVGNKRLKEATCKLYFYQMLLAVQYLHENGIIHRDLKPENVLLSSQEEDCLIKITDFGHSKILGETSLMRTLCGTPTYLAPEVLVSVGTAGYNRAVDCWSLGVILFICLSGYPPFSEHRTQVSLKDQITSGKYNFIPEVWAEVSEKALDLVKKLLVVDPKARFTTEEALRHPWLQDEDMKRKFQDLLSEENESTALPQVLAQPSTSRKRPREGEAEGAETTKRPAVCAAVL

[10] = biological target: T10, ankyrin repeat domain 53, transcript variant 2 (human)
T10 construct: HuProt array protein, full-length recombinant from yeast; also called ANKRD53
T10 chain: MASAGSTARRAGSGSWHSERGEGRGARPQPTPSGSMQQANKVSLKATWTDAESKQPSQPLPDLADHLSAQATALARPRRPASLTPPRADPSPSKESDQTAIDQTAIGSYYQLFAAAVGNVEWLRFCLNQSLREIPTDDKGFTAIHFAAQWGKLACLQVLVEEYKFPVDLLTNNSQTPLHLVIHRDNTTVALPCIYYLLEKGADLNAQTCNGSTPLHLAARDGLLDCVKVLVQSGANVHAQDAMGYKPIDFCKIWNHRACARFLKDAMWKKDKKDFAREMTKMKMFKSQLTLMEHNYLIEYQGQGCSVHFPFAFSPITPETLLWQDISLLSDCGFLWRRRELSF

B1: TBRE1027 (antibody, V domains shown)
VH: EVQLLESGGGLVQPGGSLRLSCAASGFTFSSYAMSWVRQAPGKGLEWVSTISGSGHSTYYADSVKGRFTISRDNSKNTLYLQMNSLRAEDTAVYYCAKSTLGGGFDFWGQGTLVTVSS
VL: DIQMTQSPFSLSASVGDRVTITCRASQSISSYLNWYQQKPGKAPKLLIYAASSLQSGVPSRFSGSGSGTDFTLTISSLQPEDFATYYCHQSYSTSLTFGGGTKVEIKR
notes: VH/VL only
Does B1 bind (DEAD-box helicase 18)?
Result: binds

Does B1 bind [1]?
Result: binds

Does B1 bind [2]?
Result: binds

B2: THNS1014 (antibody, V domains shown)
VH: HVQLLQSGPGLVKPSQTLSLTCAISGDSVSSTSGAWNWIRQSPSRGLEWLGRTYYRSQWMNDYAESVRSRITINPDTSKNQFSLQLKSVTPEDTAVYYCTRGWAFTSSDWGQGTQVTVSS
VL: EIVLTQSPGTLSLSPGERATLSCRASQSFDGKSLAWYQQKPGQTPRLLVYGASSRATGIPDRFGGSGSGTDFTLTISRLESEDFAVYFCQQYAYVPITFGQGTRLERKR
notes: detected with anti-human IgG Fc
Does B2 bind [3]?
Result: binds

Does B2 bind [4]?
Result: binds

B3: TKIC1002 (antibody, V domains shown)
VH: PVQLQESGPGLVKPSETLSLTCTVSGGSISSYYWSWIRQPPGKGLEWIGYLFYSGSTNYNPSLKSRVTISVDTSKNQFSLKLGSVTAADTAVYYCARHRIFGLDVWGQGTTVTVSS
VL: EIVLTQSPGTLSLSLGERATLSCRASQSVSGSHLAWYQQKPGQAPRLLIYDASSRATGIPDRFSGSGSGTEFTLTISRLEPEDFAVYYCQQYGSSPLWFGQGTKVEIK
notes: as for B2
Does B3 bind [5]?
Result: binds

B4: TKIC1006 (antibody, V domains shown)
VH: QVQLVQSGAEVKKPGSSVKVSCKTSGGTFSSYTISWVRQAPGQGPEWMGRIIPILNITNYAQKFQGRVTITADKSTSTTYMEMGSLRSEDTAVYFCARSFYGSGLQWGQGTLVTVSS
VL: EIVLTQSPGTLSLSPGERATLSCRASQSVSSSYLVWYQQKAGQAPRLLIYGASSRATGISDRFSGSGSGTDFTLTISRLEPEDFAVYYCQHFRSSPPTYTFGQGTKLEIKR
notes: as for B2
Does B4 bind [6]?
Result: binds

B5: TKIC1007 (antibody, V domains shown)
VH: GVDLVESGGGLVKPGGSLRLSCAASGFSFSRYNINWVRQAPGKGLEWVSSISSTSNYIYYADSVKGRFTISRDNAKNSLYLQMNSLRAEDTAVYYCARAMGGYTYYLDDWGQGTLVTVSS
VL: QSALTQPASVSGSPGQSITISCTGTSSDVGLYNFVSWYQQHPGKAPKLMIFDVNNRPSGVSNRFSGSKSDNTASLTISGLQAEDEADYYCSSYSRTTTLVFGGGTKVTVLG
notes: as for B2
Does B5 bind [7]?
Result: binds

B6: TKIC1012 (antibody, V domains shown)
VH: VVQLVESGGGLVQPGGSLRLSCAASGFSFSTYWMSWVRQAPGKGLEWVANIKQDGSEKHYVDSVKGRFTISRDNAKNSLYLQMNSLRAEDTAMYYCARRAYSFDYWGQGTLVTVSS
VL: DIQMTQSPSTLSASVGDKVTITCRASQSVGSWLAWYQQKPGKAPKLLISVASSLESGVPSRFSGSGSGTEFTLTVSSLQPDDFATYYCQQYNSYSWTFGQGTKVELKR
notes: as for B2
Does B6 bind [8]?
Result: binds

B7: TKIC1013 (antibody, V domains shown)
VH: EVQLVESGGGLVQPGGSLRLSCAASGFTFNNYWMHWVRQAPGKGLVWVSRISSDGSTTASADSVKGRFTISRDNAKNTLFLQMNSLRAEDTAVYYCAREGAPDDYGDSGTAFDIWGQGTTVTVSS
VL: DIQLTQSPSFLSASVGDRVTITCRASQDISSFLAWYQQKPGKAPDLLIYAASTLQSGVPSRFSGSGSGTEFTLTISSLQPEDFAAYYCQHLTSFPYTFGQGTKLEIKR
notes: as for B2
Does B7 bind [9]?
Result: binds

B8: TKIC1019 (antibody, V domains shown)
VH: QLQLQESGPGLVKPSETLSLTCTVSDVSIISSFYYWGWIRQPPGKGLEWIGSVYYSGSTSYNPSLKSRVTISADTSKAHFSLNLRSVTAADTAVYYCVSRGPLGGAAAGPDYWGQGALVIVSS
VL: VSSELTQDPAVSVALGQTVRITCQGDSLRSYYATWYQQKPGQAPLLVIFDKDKRPSGIPDRFSGSSSGNTASLTITGAQPEDEAVYYCNSRDSSAHDHLLFGGGTTLTVLG
notes: as for B2
Does B8 bind [10]?
Result: binds
